Experiments:
[1] = EDA activity assay: S. cerevisiae EDA extracts with saturating E. coli EDD extract (LDH coupled, NADH); assay type: biochemical; conditions: for EDA activity compared (in words): EDAs expressed in S. cerevisiae, saturating E. coli EDD extract
Procedure: EDA genes isolated from a variety of sources were expressed in yeast and evaluated independently of EDA activity, to identify EDA activities suitable of inclusion in an engineered yeast strain. […] The activity of integrated EDAs in Thermosacc-Gold haploids, were also evaluated in this manner.
EDD extractions (adapted from Chemyan et al, Protein Science 16:2368-2377, 2007): • 1) Pellet cells in 50 ml conical tubes, 4° C., 3,000 rpm, 10 mins, discard supernatant. • 2) Resuspend in 2 ml degassed PDGH buffer (20 mM MES pH 6.5, 30 mM NaCl, 5 mM MnCl2, 0.5 mM FeCl2, 10 mM 2-mercaptoethanol, 10 mM cysteine, sparged with nitrogen gas). Move to hungate tube. • 3) Add 0.1% Triton X-100, 10 ng/ml DNase, 10 μg/ml PMSF, 10 μg/ml TAME (Na-(p-toluene sulfonyl)-L-arginine methyl ester), 100 μg/ml lysozyme. • 4) Sparge hungate tube with nitrogen gas, cap and seal. Incubate 2 hours at 37° C., swirl occasionally. • 5) Clarify by centrifugation in 2-ml tube, 4° C., 10 mins, 14,000 rpm. Keep supernatant. • 6) Treat with 150 mM pyruvate and 10 mM sodium cyanoborohydride (work in hood) to inactivate aldolase activity. Incubate 30 mins at room temperature. • 7) During incubation, pre-equilibrate PD-10 column from GE • a. Remove top cap, pour off storage buffer. • b. Cut off bottom tip, fit in 50 ml conical with adapter. • c. Pour 5 ml of 20 mM MES buffer, pH 6.5 (total of 5 times). Discard flow-through. • 8) Run sample through column, then add MES buffer to a total of 2.5 ml volume added. Discard flow-through. • 9) Run 3.5 ml 20 mM MES pH 6.5 buffer to elute protein. Discard column in appropriate waste receptacle. • 10) Perform Bradford assay (1:10 or 1:20 dilution).
• 1) Spin down in 50 ml conicals, 4° C., 3,400 rpm, 5 mins. […]
Each reaction contains 50 mM Tris-HCl, pH 7, 10 mM MgCl2, 0.15 mM NADH, 15 μg LDH, saturating amounts of EDD determined empirically (usually −100 μg), 1-50 μg EDA (depending on level of activity), and 1 mM 6-phosphogluconate. Reactions are started by the addition of 6-phosphogluconate and monitored for 5 mins at 30° C.

[2] = Anti-His western blot of EDD and EDA variants expressed in S. cerevisiae (soluble/insoluble fractions); parameters: species or system Saccharomyces cerevisiae; conditions: C-terminal HIS tag; total crude extract and solubilized extract
Procedure: Transformation of the p426GPD plasmids containing an edd or an eda variant gene into yeast strain BY4742 was accomplished using the Zymo Research frozen-EZ yeast transformation II kit according to the manufacturer's protocol. The transformed BY4742 cells were selected by growth on a synthetic dextrose medium (SD) (0.67% yeast nitrogen base-2% dextrose) containing complete amino acids minus uracil (Krackeler Scientific Inc). Plates were incubated at about 30° C. for about 48 hours. Transformant colonies for each edd and eda variant were inoculated onto 5 ml of SD minus uracil medium and cells were grown at about 30° C. and shaken at about 250 rpm for about 24 hours. Cells were harvested by centrifugation at 1000×g for about 5 minutes, after which protein crude extract was prepared with Y-PER Plus (Thermo Scientific) according to the manufacturer's instructions. Whole cell extract protein concentrations were determined using the Coomassie Plus Protein Assay (Thermo Scientific) according to the manufacturer's directions. For each edd and eda variant His-tagged construct, about 10 μg of soluble and insoluble fractions were loaded on 4-12% NuPAGE Novex Bis-Tris protein gels (Invitrogen) and proteins were analyzed by western using anti-(His)6 (SEQ ID NO: 138) mouse monoclonal antibody (Abcam) and HRP-conjugated secondary antibody (Abcam). […]

[3] = ZWF1 (glucose-6-phosphate dehydrogenase) kinetic assay on crude extract with NADP+ or NAD+; assay type: biochemical
Procedure: Strain BY4742 zwf1 (ATCC Cat. No. 4011971; Winzeler E A, et al. Science 285: 901-906, 1999. PubMed: 10436161) was used as the base strain for all ZWF1 assays. The assays were performed as follows: A 5 ml overnight of the strain expressing the ZWF1 gene was grown in SCD-ura. A 50 ml culture of the strain was then grown for about 18 hours from an initial OD600 of about 0.2 until it had reached about OD600 of about 4. The cells were centrifuged at 1046×g washed twice with 25 ml cold sterile water, and resuspended in 2 ml/g Yper Plus (Thermo Scientific) plus 1×protease inhibitors (EDTA-free). The cells were allowed to lyse at room temperature for about 30 minutes with constant rotation of the tubes. The lysate was centrifuged at 16,100×g for 10 minutes at 4° C. and the supernatants were transferred to a new 1.5 ml microcentrifuge tube. Quantification of the lysates was performed using the Coomassie-Plus kit (Thermo Scientific, San Diego, Calif.) as directed by the manufacturer.
The reaction was started with 20 mM glucose-6-phosphate and the reaction was monitored at A340. The specific activity was measured as the μmol substrate/min/mg protein.

B1: E. coli EDA protein: 2-keto-3-deoxygluconate-6-phosphate aldolase (eda) isolated from E. coli genomic DNA (protein, UniProt P0A955 1-213, looked up)
KHG/KDPG aldolase: MKNWKTSAESILTTGPVVPVIVVKKLEHAVPMAKALVAGGVRVLEVTLRTECAVDAIRAIAKEVPEAIVGAGTVLNPQQLAEVTEAGAQFAISPGLTEPLLKAATEGTIPLIPGISTVSELMLGMDYGLKEFKFFPAEANGGVKALQAIAGPFSQVRFCPTGGISPANYRDYLALKSVLCIGGSWLVPADALEAGDYDRITKLAREAVEGAKL
Q: What does the source list for B1?
A: EDA activity relative to EDA from P. aeruginosa ([1]; E. coli EDA slope outside the linear range, underestimated): approximately 16 fold; EDA activity compared (in words) [1]: most active; expression and solubility in S. cerevisiae (western, FIGS. 13A and 13B) [2]: expressed and soluble

B2: Mutant 13: S. cerevisiae ZWF1 site-directed mutant A24G/A51D (protein, UniProt P11412 2-505, looked up, variant A24G A51D)
Glucose-6-phosphate …: SEGPVKFEKNTVISVFGASGDLGKKKTFPALFGLFREGYLDPSTKIFGYDRSKLSMEEDLKSRVLPHLKKPHGEADDSKVEQFFKMVSYISGNYDTDEGFDELRTQIEKFEKSANVDVPHRLFYLALPPSVFLTVAKQIKSRVYAENGITRVIVEKPFGHDLASARELQKNLGPLFKEEELYRIDHYLGKELVKNLLVLRFGNQFLNASWNRDNIQSVQISFKERFGTEGRGGYFDSIGIIRDVMQNHLLQIMTLLTMERPVSFDPESIRDEKVKVLKAVAPIDTDDVLLGQYGKSEDGSKPAYVDDDTVDKDSKCVTFAAMTFNIENERWEGVPIMMRAGKALNESKVEIRLQYKAVASGVFKDIPNNELVIRVQPDAAVYLKFNAKTPGLSNATQVTDLNLTYASRYQDFWIPEAYEVLIRDALLGDHSNFVRDDELDISWGIFTPLLKHIERPDGPTPEIYPYGSRGPKGLKEYMQKHKYVMPEKHPYAWPVTKPEDTKDN
Q: Which results are given for B2?
A: NAD+ usage ([3]; initial kinetic screening of S. cerevisiae ZWF1 (zwf1_sc) mutants, preliminary cofactor phenotype, NAD+ as cofactor): Yes; NADP+ usage ([3]; initial kinetic screening of S. cerevisiae ZWF1 (zwf1_sc) mutants, preliminary cofactor phenotype, NADP+ as cofactor): No; cofactor utilization (NAD+ / NADP+) ([3]; initial kinetic screening of S. cerevisiae ZWF1 mutants): enabled NAD+ utilization with concomitant loss of NADP+ utilization

B3: PAO1 EDD protein: phosphogluconate dehydratase (edd) of Pseudomonas aeruginosa PAO1, SEQ ID NO: 70 (protein, listed as Pseudomonas aeruginosa)
chain: MHPRVLEVTRRIQARSAATRQRYLEMVRAAASKGPHRGTLPCGNLAHGVAACGESDKQTLRLMNQANVAIVSAYNDMLSAHQPFERFPGLIKQALHEIGSVGQFAGGVPAMCDGVTQGEPGMELSLASRDVIAMSTAIALSHNMFDAALCLGVCDKIVPGLLIGSLRFGHLPTVFVPAGPMPTGISNKEKAAVRQLFAEGKATREELLASEMASYHAPGTCTFYGTANTNQLLVEVMGLHLPGASFVNPNTPLRDELTREAARQASRLTPENGNYVPMAEIVDEKAIVNSVVALLATGGSTNHTLHLLAIAQAAGIQLTWQDMSELSHVVPTLARIYPNGQADINHFQAAGGMSFLIRQLLDGGLLHEDVQTVAGPGLRRYTREPFLEDGRLVWREGPERSLDEAILRPLDKPFSAEGGLRLMEGNLGRGVMKVSAVAPEHQVVEAPVRIFHDQASLAAAFKAGELERDLVAVVRFQGPRANGMPELHKLTPFLGVLQDRGFKVALVTDGRMSGASGKVPAAIHVSPEAIAGGPLARLRDGDRVRVDGVNGELRVLVDDAEWQARSLEPAPQDGNLGCGRELFAFMRNAMSSAEEGACSFTESLNGWR
Q: For B3, which “expression and solubility in S. cerevisiae (western, FIGS. 13A and 13B)” value [2] is on record?
A: expressed and soluble

B4: Codon-optimized EDA from P. aeruginosa: codon-optimized version of the P. aeruginosa EDA gene (protein, UniProt O68283 1-220, looked up)
2-dehydro-3-deoxy-phosphogluco …: MHNLEQKTARIDTLCREARILPVITIDREADILPMADALAAGGLTALEITLRTAHGLTAIRRLSEERPHLRIGAGTVLDPRTFAAAEKAGASFVVTPGCTDELLRFALDSEVPLLPGVASASEIMLAYRHGYRRFKLFPAEVSGGPAALKAFSGPFPDIRFCPTGGVSLNNLADYLAVPNVMCVGGTWMLPKAVVDRGDWAQVERLSREALERFAEHRRH
modifications: codon-optimized gene
Q: Which “EDA activity compared (in words)” value [1] does the source give for B4 here?
A: slight improvement over the native sequence

— US20120184020A1, “ENGINEERED MICROORGANISMS WITH ENHANCED FERMENTATION ACTIVITY” (Verdezyne, Inc., priority 2009, published 2012)
